{
  "source": "the supplement of paper PMC9112550",
  "about": "“Optimization of the antimicrobial peptide Bac7 by deep mutational scanning” (BMC Biology, 2022);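 note: peptides expressed intracellularly from a pBAD plasmid library in pooled LB shake-flask culture, induced with 0.3% L-arabinose, DNA abundance read by NGS, three biological replicates, DESeq2 with apeglm shrinkage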",
  "data": [
    {"tested_on": "Escherichia coli TOP10", "assay": "shrunken log2 fold change of peptide-encoding DNA abundance (4.5 h post-induction vs induction); higher = less antimicrobial activity (less host growth inhibition)", "conditions": "time post-induction: 4.5 h; library: site-saturation at positions 5, 18, 19, 20", "values": [
      {"sequence": "RRIRARPPRLPRPRPRPTYEPRP", "shrunken log2 fold change": 0.179},
      {"sequence": "RRIRHRPPRLPRPRPRPHKQPRP", "shrunken log2 fold change": -0.225},
      {"sequence": "RRIRVRPPRLPRPRPRPKALPRP", "shrunken log2 fold change": 0.0497},
      {"sequence": "RRIRGRPPRLPRPRPRPCTSPRP", "shrunken log2 fold change": 0.188},
      {"sequence": "RRIRVRPPRLPRPRPRPGYLPRP", "shrunken log2 fold change": -0.14},
      {"sequence": "RRIRARPPRLPRPRPRPKEWPRP", "shrunken log2 fold change": 1.16},
      {"sequence": "RRIRFRPPRLPRPRPRPECIPRP", "shrunken log2 fold change": -0.04},
      {"sequence": "RRIRARPPRLPRPRPRPGFIPRP", "shrunken log2 fold change": -0.339},
      {"sequence": "RRIRKRPPRLPRPRPRPDPLPRP", "shrunken log2 fold change": 0.282},
      {"sequence": "RRIRQRPPRLPRPRPRPRITPRP", "shrunken log2 fold change": 1.06},
      {"sequence": "RRIRIRPPRLPRPRPRPFRIPRP", "shrunken log2 fold change": -0.103},
      {"sequence": "RRIRPRPPRLPRPRPRPHHIPRP", "shrunken log2 fold change": -0.544},
      {"sequence": "RRIRARPPRLPRPRPRPANEPRP", "shrunken log2 fold change": 0.173},
      {"sequence": "RRIRMRPPRLPRPRPRPCMVPRP", "shrunken log2 fold change": -0.417},
      {"sequence": "RRIRCRPPRLPRPRPRPCMTPRP", "shrunken log2 fold change": -0.114},
      {"sequence": "RRIRFRPPRLPRPRPRPHECPRP", "shrunken log2 fold change": 0.0366},
      {"sequence": "RRIRKRPPRLPRPRPRPDCQPRP", "shrunken log2 fold change": 0.00443},
      {"sequence": "RRIRGRPPRLPRPRPRPAWEPRP", "shrunken log2 fold change": 1.01},
      {"sequence": "RRIRMRPPRLPRPRPRPNWQPRP", "shrunken log2 fold change": 0.00599},
      {"sequence": "RRIRARPPRLPRPRPRPAKCPRP", "shrunken log2 fold change": "-6.11e-05"},
      {"sequence": "RRIRWRPPRLPRPRPRPNTCPRP", "shrunken log2 fold change": -0.777},
      {"sequence": "RRIRARPPRLPRPRPRPPFSPRP", "shrunken log2 fold change": 0.137},
      {"sequence": "RRIRARPPRLPRPRPRPQEAPRP", "shrunken log2 fold change": 0.197},
      {"sequence": "RRIRCRPPRLPRPRPRPLSVPRP", "shrunken log2 fold change": -0.481},
      {"sequence": "RRIRMRPPRLPRPRPRPMTVPRP", "shrunken log2 fold change": 0.0944},
      {"sequence": "RRIRHRPPRLPRPRPRPNWAPRP", "shrunken log2 fold change": -0.0735},
      {"sequence": "RRIRRRPPRLPRPRPRPRLQPRP", "shrunken log2 fold change": 0.349},
      {"sequence": "RRIRYRPPRLPRPRPRPFLQPRP", "shrunken log2 fold change": -0.218},
      {"sequence": "RRIRLRPPRLPRPRPRPVWQPRP", "shrunken log2 fold change": -0.096},
      {"sequence": "RRIRNRPPRLPRPRPRPPASPRP", "shrunken log2 fold change": 0.486},
      {"sequence": "RRIRLRPPRLPRPRPRPQQTPRP", "shrunken log2 fold change": 0.168},
      {"sequence": "RRIRPRPPRLPRPRPRPWRYPRP", "shrunken log2 fold change": -0.0238},
      {"sequence": "RRIRIRPPRLPRPRPRPYGNPRP", "shrunken log2 fold change": -1.18},
      {"sequence": "RRIRVRPPRLPRPRPRPMHKPRP", "shrunken log2 fold change": -0.192},
      {"sequence": "RRIRKRPPRLPRPRPRPHNTPRP", "shrunken log2 fold change": -0.152},
      {"sequence": "RRIRMRPPRLPRPRPRPEIPPRP", "shrunken log2 fold change": 0.497},
      {"sequence": "RRIRTRPPRLPRPRPRPHCHPRP", "shrunken log2 fold change": -0.0122},
      {"sequence": "RRIRRRPPRLPRPRPRPYMHPRP", "shrunken log2 fold change": -0.451},
      {"sequence": "RRIRSRPPRLPRPRPRPWALPRP", "shrunken log2 fold change": -0.0699},
      {"sequence": "RRIRPRPPRLPRPRPRPMGHPRP", "shrunken log2 fold change": -0.145},
      {"sequence": "RRIRQRPPRLPRPRPRPTGAPRP", "shrunken log2 fold change": 0.412},
      {"sequence": "RRIRNRPPRLPRPRPRPLPIPRP", "shrunken log2 fold change": -0.299},
      {"sequence": "RRIRERPPRLPRPRPRPIAIPRP", "shrunken log2 fold change": -0.00127},
      {"sequence": "RRIRWRPPRLPRPRPRPEHCPRP", "shrunken log2 fold change": 0.177},
      {"sequence": "RRIRTRPPRLPRPRPRPEMSPRP", "shrunken log2 fold change": -0.145},
      {"sequence": "RRIRYRPPRLPRPRPRPQHHPRP", "shrunken log2 fold change": -0.55},
      {"sequence": "RRIRLRPPRLPRPRPRPCVHPRP", "shrunken log2 fold change": -0.377},
      {"sequence": "RRIRGRPPRLPRPRPRPSPHPRP", "shrunken log2 fold change": 0.435},
      {"sequence": "RRIRFRPPRLPRPRPRPHRWPRP", "shrunken log2 fold change": -0.17},
      {"sequence": "RRIRKRPPRLPRPRPRPWYYPRP", "shrunken log2 fold change": -0.198},
      {"sequence": "RRIRVRPPRLPRPRPRPTIIPRP", "shrunken log2 fold change": -0.479},
      {"sequence": "RRIRQRPPRLPRPRPRPSNWPRP", "shrunken log2 fold change": -0.227},
      {"sequence": "RRIRDRPPRLPRPRPRPFTKPRP", "shrunken log2 fold change": -0.262},
      {"sequence": "RRIRTRPPRLPRPRPRPAPHPRP", "shrunken log2 fold change": 0.22},
      {"sequence": "RRIRARPPRLPRPRPRPDKGPRP", "shrunken log2 fold change": 0.168},
      {"sequence": "RRIRRRPPRLPRPRPRPCSVPRP", "shrunken log2 fold change": 0.178},
      {"sequence": "RRIRWRPPRLPRPRPRPRGSPRP", "shrunken log2 fold change": 0.495},
      {"sequence": "RRIRSRPPRLPRPRPRPNDYPRP", "shrunken log2 fold change": -1.18},
      {"sequence": "RRIRRRPPRLPRPRPRPACTPRP", "shrunken log2 fold change": 0.181},
      {"sequence": "RRIRRRPPRLPRPRPRPMADPRP", "shrunken log2 fold change": 0.357},
      {"sequence": "RRIRRRPPRLPRPRPRPVHPPRP", "shrunken log2 fold change": 0.348},
      {"sequence": "RRIRVRPPRLPRPRPRPSMAPRP", "shrunken log2 fold change": -0.0698},
      {"sequence": "RRIRGRPPRLPRPRPRPRWCPRP", "shrunken log2 fold change": 0.351},
      {"sequence": "RRIRLRPPRLPRPRPRPLVKPRP", "shrunken log2 fold change": -0.00589},
      {"sequence": "RRIRWRPPRLPRPRPRPIWPPRP", "shrunken log2 fold change": 0.684},
      {"sequence": "RRIRRRPPRLPRPRPRPRFNPRP", "shrunken log2 fold change": -0.189},
      {"sequence": "RRIRLRPPRLPRPRPRPNKAPRP", "shrunken log2 fold change": -0.0163},
      {"sequence": "RRIRCRPPRLPRPRPRPQQYPRP", "shrunken log2 fold change": -0.709},
      {"sequence": "RRIRIRPPRLPRPRPRPLMLPRP", "shrunken log2 fold change": -0.704},
      {"sequence": "RRIRGRPPRLPRPRPRPASGPRP", "shrunken log2 fold change": 0.625},
      {"sequence": "RRIRKRPPRLPRPRPRPGKHPRP", "shrunken log2 fold change": 0.258},
      {"sequence": "RRIRARPPRLPRPRPRPLEQPRP", "shrunken log2 fold change": 0.156},
      {"sequence": "RRIRWRPPRLPRPRPRPDAGPRP", "shrunken log2 fold change": 0.485},
      {"sequence": "RRIRFRPPRLPRPRPRPMQVPRP", "shrunken log2 fold change": -0.228},
      {"sequence": "RRIRHRPPRLPRPRPRPSTDPRP", "shrunken log2 fold change": -0.406},
      {"sequence": "RRIRSRPPRLPRPRPRPYFGPRP", "shrunken log2 fold change": -0.642},
      {"sequence": "RRIRMRPPRLPRPRPRPDMVPRP", "shrunken log2 fold change": 1.9},
      {"sequence": "RRIRTRPPRLPRPRPRPHNFPRP", "shrunken log2 fold change": -0.0359},
      {"sequence": "RRIRLRPPRLPRPRPRPALDPRP", "shrunken log2 fold change": 0.396},
      {"sequence": "RRIRCRPPRLPRPRPRPDPMPRP", "shrunken log2 fold change": 0.00263},
      {"sequence": "RRIRARPPRLPRPRPRPHMQPRP", "shrunken log2 fold change": 2.87},
      {"sequence": "RRIRKRPPRLPRPRPRPGACPRP", "shrunken log2 fold change": 0.237},
      {"sequence": "RRIRERPPRLPRPRPRPWSPPRP", "shrunken log2 fold change": -0.0132},
      {"sequence": "RRIRDRPPRLPRPRPRPAMCPRP", "shrunken log2 fold change": 0.531},
      {"sequence": "RRIRGRPPRLPRPRPRPTVAPRP", "shrunken log2 fold change": 1.99},
      {"sequence": "RRIRRRPPRLPRPRPRPPLIPRP", "shrunken log2 fold change": 0.511},
      {"sequence": "RRIRNRPPRLPRPRPRPAQWPRP", "shrunken log2 fold change": 0.525},
      {"sequence": "RRIRFRPPRLPRPRPRPRRLPRP", "shrunken log2 fold change": 0.462},
      {"sequence": "RRIRARPPRLPRPRPRPAWVPRP", "shrunken log2 fold change": 0.235},
      {"sequence": "RRIRVRPPRLPRPRPRPAFYPRP", "shrunken log2 fold change": -0.135},
      {"sequence": "RRIRERPPRLPRPRPRPPRWPRP", "shrunken log2 fold change": 0.508},
      {"sequence": "RRIRFRPPRLPRPRPRPKCCPRP", "shrunken log2 fold change": -0.149},
      {"sequence": "RRIRNRPPRLPRPRPRPYCHPRP", "shrunken log2 fold change": -0.72},
      {"sequence": "RRIRKRPPRLPRPRPRPRIWPRP", "shrunken log2 fold change": 0.434},
      {"sequence": "RRIRCRPPRLPRPRPRPSCMPRP", "shrunken log2 fold change": -0.313},
      {"sequence": "RRIRKRPPRLPRPRPRPSIQPRP", "shrunken log2 fold change": -0.149},
      {"sequence": "RRIRERPPRLPRPRPRPWWFPRP", "shrunken log2 fold change": 0.137},
      {"sequence": "RRIRIRPPRLPRPRPRPKYLPRP", "shrunken log2 fold change": -0.437},
      {"sequence": "RRIRQRPPRLPRPRPRPKFKPRP", "shrunken log2 fold change": 0.0538},
      {"sequence": "RRIRARPPRLPRPRPRPQGPPRP", "shrunken log2 fold change": -0.0931},
      {"sequence": "RRIRCRPPRLPRPRPRPMIIPRP", "shrunken log2 fold change": -0.18},
      {"sequence": "RRIRHRPPRLPRPRPRPVPPPRP", "shrunken log2 fold change": 0.244},
      {"sequence": "RRIRARPPRLPRPRPRPTAIPRP", "shrunken log2 fold change": 0.977},
      {"sequence": "RRIRMRPPRLPRPRPRPRCRPRP", "shrunken log2 fold change": 0.619},
      {"sequence": "RRIRTRPPRLPRPRPRPFQKPRP", "shrunken log2 fold change": -0.0018},
      {"sequence": "RRIRIRPPRLPRPRPRPVYCPRP", "shrunken log2 fold change": -0.127},
      {"sequence": "RRIRARPPRLPRPRPRPLVCPRP", "shrunken log2 fold change": 0.483},
      {"sequence": "RRIRSRPPRLPRPRPRPHTHPRP", "shrunken log2 fold change": -0.419},
      {"sequence": "RRIRKRPPRLPRPRPRPCVHPRP", "shrunken log2 fold change": -0.266}
    ]}
  ]
}
